Data taken from US20250215104A1 (WALDEN BIOSCIENCES, published 2025).
Numbering of substitutions follows the chain as printed.

B1: suPAR_DB06_F07 (scFv, V domains shown)
VH: QVQLVQSGAEVKKPGASVKVSCKASGYTFTNYYMHWVRQAPGQGLEWMGWIDHENGNTIYDQKFQGRVTMTRDTSTSTVYMELSSLRSEDTAVYYCARGYDVDWFVYWGQGTLVTVSS
VL: DIQMTQSPSSLSASVGDRVTITCSARSSVSYMYWYQQKPGKAPKLLIYRTSNLASGVPSRFSGSGSGTDFTLTISSLQPEDFATYYCQQYHSYPPTFGGGTKVEIK
B2: suPAR_DB06_B12 (scFv, V domains shown)
VH: B1 VH with H53P, N55G
VL: B1 VL
B3: suPAR_DB06_C03 (scFv, V domains shown)
VH: B1 VH with N31S, H53P, E54N, N55S, N57G, I59N, D61A
VL: B1 VL
B4: suPAR_DB06_C07 (scFv, V domains shown)
VH: B1 VH with H53P, E54N, N55G, N57G, I59Q, D61A
VL: B1 VL
B5: suPAR_DB06_C06 (scFv, V domains shown)
VH: B1 VH with T30S, N55G, I59S, D61A
VL: B1 VL
B6: suPAR_DB06_B10 (scFv, V domains shown)
VH: B1 VH with Y27D, F29L, N57S, D61A
VL: B1 VL with A54Q, S55T
B7: suPAR_DB06_B11 (scFv, V domains shown)
VH: B1 VH with N31S, Y32N, M34I, R98E
VL: B1 VL with S24R, S27Q
B8: suPAR_DB06_C01 (scFv, V domains shown)
VH: B1 VH with N31G, H53P, E54S
VL: B1 VL with S27Q, V29I
B9: suPAR_DB02_E06 (scFv, V domains shown)
VH: B1 VH with N31G, H53P
VL: B1 VL
notes: scFv clone from phage display
B10: suPAR_DB02_G02 (scFv, V domains shown)
VH: B1 VH with N31R, N57S, D61A
VL: B1 VL with N52S, A54Q
notes: scFv clone from phage display
B11: suPAR_DB02_D03 (scFv, V domains shown)
VH: B1 VH with N31S, Y32H
VL: B1 VL
notes: scFv clone from phage display
B12: suPAR_DB02_F02 (scFv, V domains shown)
VH: B1 VH with N31D, H53P
VL: B1 VL with A54Q
notes: scFv clone from phage display
B13: suPAR_DB02_G12 (scFv, V domains shown)
VH: B1 VH with Y27F, T28N, F29I, T30K, N31D, M34I, H53P, N57S
VL: B1 VL with R26S, N52S, A54Q
notes: scFv clone from phage display
B14: suPAR_DB02_G03 (scFv, V domains shown)
VH: B1 VH with N31S, H53P
VL: B1 VL with R26S, S27Q
notes: scFv clone from phage display
B15: suPAR_DB02_G04 (scFv, V domains shown)
VH: B1 VH with Y27H, N31G, M34I
VL: B1 VL
notes: scFv clone from phage display
B16: suPAR_DB02_E07 (scFv, V domains shown)
VH: B1 VH with T28N, T30N, N31A, H53P, E54H, N55S, N57G, I59N, D61A
VL: B1 VL
notes: scFv clone from phage display
B17: suPAR_DB02_E04 (scFv, V domains shown)
VH: B1 VH with M34I, H35Q
VL: B1 VL
notes: scFv clone from phage display
B18: suPAR_DB02_E02 (scFv, V domains shown)
VH: B1 VH with N31D
VL: B1 VL with N52S, A54Q
notes: scFv clone from phage display
B19: suPAR_DB02_G01 (scFv, V domains shown)
VH: B1 VH with Y27H, N31D, D52S, H53P, E54N, N55S, N57G, I59N, D61A
VL: B1 VL
notes: scFv clone from phage display
B20: suPAR_DB02_D12 (scFv, V domains shown)
VH: B1 VH with T30S, N55G, N57S, D61A
VL: B1 VL with Y90S
notes: scFv clone from phage display
B21: suPAR_DB02_D02 (scFv, V domains shown)
VH: B1 VH with Y27D, N31S, N55G, I59S, D61A
VL: B1 VL
notes: scFv clone from phage display
B22: suPAR_DB02_H01 (scFv, V domains shown)
VH: B1 VH with N31G, Y32Q, M34I, E54S, N55G, N57S, R98G
VL: B1 VL with N52S
notes: scFv clone from phage display
B23: suPAR_DB02_D05 (scFv, V domains shown)
VH: B1 VH with N31S
VL: B1 VL
notes: scFv clone from phage display
B24: suPAR_DB02_H05 (scFv, V domains shown)
VH: B1 VH with T28F, N31A, H53P
VL: B1 VL
notes: scFv clone from phage display
B25: suPAR_DB02_D08 (scFv, V domains shown)
VH: B1 VH
VL: B1 VL with S24R, S27Q
notes: scFv clone from phage display
B26: suPAR_DB02_C12 (scFv, V domains shown)
VH: B1 VH with F29L, N31D, H53P, N55G, I59S
VL: B1 VL
notes: scFv clone from phage display
B27: suPAR_DB02_E12 (scFv, V domains shown)
VH: B1 VH with N31S, Y32N
VL: B1 VL with R26S, S27Q
notes: scFv clone from phage display
B28: suPAR_DB02_C11 (scFv, V domains shown)
VH: B1 VH with T28N, T30K, N31D, M34I, N57S, D61A
VL: B1 VL with S27Q
notes: scFv clone from phage display
B29: suPAR_DB02_C10 (scFv, V domains shown)
VH: B1 VH with N31D, M34V, N55G, N57S
VL: B1 VL
notes: scFv clone from phage display
B30: suPAR_DB02_E08 (scFv, V domains shown)
VH: B1 VH with T28N, F29I, T30K, N31S, M34I, R98A
VL: B1 VL
notes: scFv clone from phage display
B31: suPAR_DB02_G06 (scFv, V domains shown)
VH: B1 VH with N55G, N57S, D61A
VL: B1 VL with V29I
notes: scFv clone from phage display
B32: suPAR_DB02_D10 (scFv, V domains shown)
VH: B1 VH with N31G, H53P, N55G
VL: B1 VL
notes: scFv clone from phage display
B33: suPAR_DB02_F10 (scFv, V domains shown)
VH: B1 VH with N31T, H53P, N55G, I59S
VL: B1 VL
notes: scFv clone from phage display
B34: suPAR_DB02_G07 (scFv, V domains shown)
VH: B1 VH with N31S, H53P, N57S
VL: B1 VL with R26S, S27Q
notes: scFv clone from phage display
B35: suPAR_DB02_H03 (scFv, V domains shown)
VH: B1 VH with N31T, H53P, N55G, N57S
VL: B1 VL
notes: scFv clone from phage display
B36: suPAR_DB02_E10 (scFv, V domains shown)
VH: B1 VH with Y33F
VL: B1 VL
notes: scFv clone from phage display
B37: suPAR_DB02_F05 (scFv, V domains shown)
VH: B1 VH with N31G, Y32N, H35Q
VL: B1 VL
notes: scFv clone from phage display
B38: suPAR_DB02_F03 (scFv, V domains shown)
VH: B1 VH with N31S, M34V, H53P, N55G, N57S
VL: B1 VL with N52S, A54Q
notes: scFv clone from phage display
B39: suPAR_DB02_G08 (scFv, V domains shown)
VH: B1 VH with Y27D, N31S, N55G, I59S, D61E
VL: B1 VL
notes: scFv clone from phage display
B40: suPAR_DB02_D11 (scFv, V domains shown)
VH: B1 VH with Y27F, T28N, F29I, T30K, N31D, M34I, H53P
VL: B1 VL
notes: scFv clone from phage display

Target: T1, human soluble urokinase plasminogen activator receptor (suPAR) (human, UniProt Q03405 23-303, limits assumed)
T1 construct: Target antigen of the scFv off-rate screen; also called hsuPAR; human suPAR
Test: BLI (Octet) off-rate screen of scFv clones
T1 sequence (Q03405 23-303 limits assumed): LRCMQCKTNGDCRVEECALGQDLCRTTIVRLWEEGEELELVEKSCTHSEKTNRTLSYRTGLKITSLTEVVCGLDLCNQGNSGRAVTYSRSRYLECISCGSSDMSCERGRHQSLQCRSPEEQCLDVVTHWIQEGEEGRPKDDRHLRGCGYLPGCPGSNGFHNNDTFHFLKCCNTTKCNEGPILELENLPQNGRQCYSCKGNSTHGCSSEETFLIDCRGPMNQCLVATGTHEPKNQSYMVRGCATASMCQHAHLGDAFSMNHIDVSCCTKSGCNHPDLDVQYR

Point of comparison: B2, koff 0.00203 s⁻¹. Against it:
- B1 — 2-fold higher, 0.00402 s⁻¹
- B3 — 1.7-fold higher, 0.00347 s⁻¹
- B4 — 2.4-fold higher, 0.00495 s⁻¹
- B5 — 1.5-fold higher, 0.00311 s⁻¹
- B6 — within 1.5-fold, 0.00141 s⁻¹
- B7 — 2.4-fold higher, 0.00489 s⁻¹
- B8 — within 1.5-fold, 0.00233 s⁻¹

Target: T2, cynomolgus soluble urokinase plasminogen activator receptor (suPAR) (cynomolgus, UniProt Q9GK78 23-303, limits assumed)
T2 construct: Target antigen of the scFv off-rate screen; also called cynomolgus suPAR; cynomolgus uPAR
Test: BLI (Octet) off-rate screen of scFv clones
Target sequence in this assay (Q9GK78 23-303 limits assumed): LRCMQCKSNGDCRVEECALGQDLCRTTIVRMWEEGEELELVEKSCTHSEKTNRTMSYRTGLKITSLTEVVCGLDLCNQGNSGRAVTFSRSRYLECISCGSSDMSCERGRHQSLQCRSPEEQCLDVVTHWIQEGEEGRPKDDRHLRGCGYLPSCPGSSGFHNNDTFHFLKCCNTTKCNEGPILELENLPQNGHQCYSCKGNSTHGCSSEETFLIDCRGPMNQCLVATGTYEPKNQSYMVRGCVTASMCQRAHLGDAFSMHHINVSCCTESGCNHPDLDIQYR

Point of comparison: B1, koff 0.000455 s⁻¹. Against it:
- B2 — 1.6-fold lower, 0.000293 s⁻¹
- B3 — within 1.5-fold, 0.000332 s⁻¹
- B4 — within 1.5-fold, 0.000387 s⁻¹
- B5 — 1.8-fold lower, 0.00025 s⁻¹
- B6 — within 1.5-fold, 0.000587 s⁻¹
- B7 — 3.6-fold lower, 0.000128 s⁻¹
- B8 — 31-fold lower, 1.49e-05 s⁻¹

Target: T3, human soluble urokinase plasminogen activator receptor (suPAR) (human, UniProt Q03405 23-303, limits assumed)
T3 construct: Column head says only 'human'; also called human suPAR; hsuPAR
Test: BLI (Octet) off-rate screen of scFv clones
T3 sequence (Q03405 23-303 limits assumed): as the sequence (Q03405 23-303 limits assumed) above

Point of comparison: B38, koff 0.00504 s⁻¹. Against it:
- B9 — 2.1-fold lower, 0.00239 s⁻¹
- B10 — 2.1-fold lower, 0.00242 s⁻¹
- B11 — within 1.5-fold, 0.0055 s⁻¹
- B12 — 2.8-fold lower, 0.00179 s⁻¹
- B13 — within 1.5-fold, 0.00371 s⁻¹
- B14 — within 1.5-fold, 0.00346 s⁻¹
- B15 — within 1.5-fold, 0.00448 s⁻¹
- B16 — within 1.5-fold, 0.00392 s⁻¹
- B17 — 1.6-fold lower, 0.00311 s⁻¹
- B18 — within 1.5-fold, 0.00438 s⁻¹
- B19 — within 1.5-fold, 0.00438 s⁻¹
- B20 — within 1.5-fold, 0.00611 s⁻¹
- B21 — within 1.5-fold, 0.00436 s⁻¹
- B22 — 1.6-fold lower, 0.00315 s⁻¹
- B23 — within 1.5-fold, 0.00358 s⁻¹
- B24 — within 1.5-fold, 0.00442 s⁻¹
- B25 — 2.5-fold lower, 0.00202 s⁻¹
- B26 — 1.6-fold lower, 0.00319 s⁻¹
- B27 — within 1.5-fold, 0.00675 s⁻¹
- B28 — within 1.5-fold, 0.0049 s⁻¹
- B29 — 2-fold lower, 0.00257 s⁻¹
- B30 — 1.6-fold lower, 0.0031 s⁻¹
- B31 — 3.7-fold lower, 0.00137 s⁻¹
- B32 — 2.8-fold lower, 0.00178 s⁻¹
- B33 — 4.8-fold lower, 0.00106 s⁻¹
- B34 — within 1.5-fold, 0.00367 s⁻¹
- B35 — within 1.5-fold, 0.00594 s⁻¹
- B36 — within 1.5-fold, 0.00552 s⁻¹
- B37 — within 1.5-fold, 0.00613 s⁻¹
- B39 — within 1.5-fold, 0.00395 s⁻¹
- B40 — within 1.5-fold, 0.00415 s⁻¹

Target: T4, cynomolgus soluble urokinase plasminogen activator receptor (suPAR) (cynomolgus, UniProt Q9GK78 23-303, limits assumed)
T4 construct: Column head says only 'cynomologus'; also called cynomolgus suPAR; cynomolgus uPAR
Test: BLI (Octet) off-rate screen of scFv clones
Target sequence in this assay (Q9GK78 23-303 limits assumed): as the sequence (Q9GK78 23-303 limits assumed) above

Point of comparison: B22, koff 0.000218 s⁻¹. Against it:
- B9 — within 1.5-fold, 0.000295 s⁻¹
- B10 — 1.7-fold lower, 0.000125 s⁻¹
- B11 — within 1.5-fold, 0.000188 s⁻¹
- B12 — 2.2-fold higher, 0.00048 s⁻¹
- B13 — 2.7-fold higher, 0.000584 s⁻¹
- B14 — within 1.5-fold, 0.00025 s⁻¹
- B15 — 2.2-fold lower, 9.86e-05 s⁻¹
- B16 — within 1.5-fold, 0.000177 s⁻¹
- B17 — within 1.5-fold, 0.000217 s⁻¹
- B18 — within 1.5-fold, 0.000189 s⁻¹
- B19 — 4.2-fold lower, 5.19e-05 s⁻¹
- B20 — 17-fold higher, 0.0038 s⁻¹
- B21 — 8.8-fold lower, 2.49e-05 s⁻¹
- B23 — within 1.5-fold, 0.000305 s⁻¹
- B24 — within 1.5-fold, 0.00021 s⁻¹
- B25 — 1.6-fold higher, 0.000345 s⁻¹
- B26 — 2.7-fold higher, 0.000582 s⁻¹
- B27 — within 1.5-fold, 0.000215 s⁻¹
- B28 — 1.8-fold higher, 0.0004 s⁻¹
- B29 — within 1.5-fold, 0.000198 s⁻¹
- B30 — 1.7-fold higher, 0.000363 s⁻¹
- B31 — 1.7-fold lower, 0.000132 s⁻¹
- B32 — 1.7-fold higher, 0.000381 s⁻¹
- B33 — 1.7-fold higher, 0.000375 s⁻¹
- B34 — within 1.5-fold, 0.000286 s⁻¹
- B35 — 2.4-fold higher, 0.000524 s⁻¹
- B36 — within 1.5-fold, 0.000189 s⁻¹
- B37 — within 1.5-fold, 0.000161 s⁻¹
- B38 — 2.3-fold higher, 0.000492 s⁻¹
- B39 — 2.1-fold lower, 0.000103 s⁻¹
- B40 — within 1.5-fold, 0.000265 s⁻¹
